Measured values as given in patent publication US20250215109A1.

Molecular target: HER2 on human tumor cells (human) (UniProt P04626)
Assay: Her2 receptor occupancy on SK-BR-3 cells, FACS, competitor biotin-labeled parental anti-HER2 antibody

Magrolimab (antibody) gave a Max RO % of 0%.
